Target: T1, myc-tagged PSD95 (UniProt P31016 1-724)
T1 construct: also called PSD-95 myc; PSD-95-myc; not shown: myc tag
Experiment: co-immunoprecipitation from HEK 293T cells stably expressing Flag-tagged GPR10, transfected with myc-tagged PSD95
Protocol: Forty-eight hours after transfection, cells were washed once in PBS and lysed with IP buffer (1% triton X-100, 25 mM Tris, pH 7.4, 50 mM NaCl, 5 mM EDTA, 5 mM EGTA, 0.1 mM phenylmethylsulphonyl fluoride (PMSF), aprotinin, leupeptin, and bacitracin). Immunoprecipitation was performed using 2 μg anti-Flag M2 antibody (Sigma) or 1 μg anti-myc antibody (Roche) followed by 25 μl protein G-agarose (Sigma). Immunoprecipitation was carried out overnight at 4° C. Immunoprecipitated proteins were resolved on SDS-PAGE, transferred to PVDF membrane. Western blotting was performed to detect GRIP using anti-GRIP antibody (1:1000). ABP-myc, PSD-95-myc, and PICK1-myc were detected using the monoclonal anti-myc antibody (1:500, Clontech).
To determine whether GPR10 interacts specifically with AMPA receptor interacting proteins, myc-tagged ABP and myc-tagged PSD95 were transfected into cell lines expressing wild type and mutant Flag-tagged GPR10.

T1 sequence (P31016 whole entry): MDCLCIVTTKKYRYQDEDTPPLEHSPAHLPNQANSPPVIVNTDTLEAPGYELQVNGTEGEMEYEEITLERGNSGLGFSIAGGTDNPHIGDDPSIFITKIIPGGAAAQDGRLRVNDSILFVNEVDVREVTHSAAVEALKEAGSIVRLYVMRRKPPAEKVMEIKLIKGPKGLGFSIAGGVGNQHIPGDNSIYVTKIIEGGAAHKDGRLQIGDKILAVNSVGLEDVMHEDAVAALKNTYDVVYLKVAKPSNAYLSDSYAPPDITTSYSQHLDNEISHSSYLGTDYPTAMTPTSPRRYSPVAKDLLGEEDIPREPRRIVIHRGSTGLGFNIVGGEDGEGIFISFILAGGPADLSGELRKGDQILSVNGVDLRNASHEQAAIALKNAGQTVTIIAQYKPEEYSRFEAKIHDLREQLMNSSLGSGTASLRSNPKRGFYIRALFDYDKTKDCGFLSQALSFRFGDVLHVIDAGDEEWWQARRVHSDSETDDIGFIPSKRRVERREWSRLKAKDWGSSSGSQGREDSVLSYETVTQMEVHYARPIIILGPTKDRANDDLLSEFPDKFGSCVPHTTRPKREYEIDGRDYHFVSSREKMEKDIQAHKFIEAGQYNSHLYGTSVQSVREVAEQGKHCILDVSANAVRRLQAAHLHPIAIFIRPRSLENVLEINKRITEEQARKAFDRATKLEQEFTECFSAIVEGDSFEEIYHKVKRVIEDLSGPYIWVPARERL

binding result: no binding
B1: Flag-tagged GPR10 (wild type) (receptor, UniProt P49683 1-370, looked up)
chain: MASSTTRGPRVSDLFSGLPPAVTTPANQSAEASAGNGSVAGADAPAVTPFQSLQLVHQLKGLIVLLYSVVVVVGLVGNCLLVLVIARVRRLHNVTNFLIGNLALSDVLMCTACVPLTLAYAFEPRGWVFGGGLCHLVFFLQPVTVYVSVFTLTTIAVDRYVVLVHPLRRRISLRLSAYAVLAIWALSAVLALPAAVHTYHVELKPHDVRLCEEFWGSQERQRQLYAWGLLLVTYLLPLLVILLSYVRVSVKLRNRVVPGCVTQSQADWDRARRRRTFCLLVVIVVVFAVCWLPLHVFNLLRDLDPHAIDPYAFGLVQLLCHWLAMSSACYNPFIYAWLHDSFREELRKLLVAWPRKIAPHGQNMTVSVVI
notes: whole, on cells; Expressed in HEK 293T or COS7 cells; immunoprecipitated from Triton lysates with anti-Flag M2; also called Flag GPR10 WT; PrRP receptor; not shown: Flag tag

— patent US20020037533A1 (University of California, published 2002)
